This is an account of results in US20150351390A1, “COMPOSITIONS AND METHODS FOR AUXIN-ANALOG CONJUGATION” (PIONEER HI-BRED INTERNATIONAL, INC., priority 2012, published 2015).

What all share (format): biochemical
Assay [1] is described as follows: LC-MS assay of GH3 conjugation of 2,4-D with Asp or Glu. The settings on record: LC-MS; for Detected auxin conjugates: 2,4-D-Asp: 2,4-D with Asp; for Detected auxin conjugates: 2,4-D-Glu: 2,4-D with Glu. In a few lines: (§1)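 N-His-tagged GH3 homologs expressed in E. coli C41(DE3) and Ni-NTA purified (44 to 164 μg/mL) were incubated 3 hours at 30° C. in 20 mM Tris-HCl pH 8.0, 5 mM MgCl2, 1 mM DTT with 5 mM each of auxin, ATP and Asp or Glu. Conjugates were quantified by LC-MS against standards.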

A short description of assay [2]: LC-MS assay of GH3 conjugation of dicamba with Asp or Glu. Conditions: LC-MS; for Detected auxin conjugates: Dicamba-Asp: dicamba with Asp; for Detected auxin conjugates: Dicamba-Glu: dicamba with Glu. On the procedure:
To detect and monitor the formation of acyl conjugates with 2,4-D or dicamba, a sensitive LC-MS method was developed using the respective amino acid conjugate standards. […] […] […] The supernatant was diluted 20× in water and then analyzed by LC-MS (AB Sciex 4000 QTrap coupled with Shimadzu Nexera UHPLC) using a Phenomenex Luna 3 μm Phenyl-Hexyl (00B-4256-Y0) column. The concentration of the conjugates was calculated based on the standards. Kinetic parameters were estimated by fitting initial velocity values to the Michaelis-Menten equation.
The GH3 superfamily conjugase activity analysis of IAA, 2,4-D or dicamba with Asp or Glu was done using LC-MS to analyze the final conjugate products as described in Example 1. Protein sequences of GH3 homologs (Table 3) were obtained from public databases (NCBI, http://www.ncbi.nlm.nih.gov/) by Blast analysis of AtGH3.17 protein sequence (accession # Q9FZ87). Coding sequences were designed for optimal expression in E. coli based on the protein sequences and synthesized. Synthesized coding sequences along with N-term his-tag coding sequences were cloned into a pET24a-based E. coli expression vector. The E. coli expression vectors were transformed into OverExpress C41(DE3) cells (Lucigen) for protein expression. Recombinant E. coli strains were inoculated into 5 ml LB media supplemented with 40 mg/L kanamycin and cultured overnight at 37° C. The overnight culture (0.5 mL) was inoculated into 50 mL LB medium plus 40 mg/L kanamycin and grown at 30° C. until OD600 reached 0.6. The cultures were induced with 0.2 mM IPTG at 16° C., 230 rpm overnight. Cells were harvested by centrifugation at 7,000 rpm for 10 mins. The cell pellet from 50 mL of cell culture was frozen and thawed twice and then lysed in 800 μL lysis buffer A (150 mM NaCl, 50 mM Tris-HCl pH 8.0, 5 mM MgCl2, 10% glycerol) plus 20 mM imidazole, 1 mM DTT, 0.2 mg/ml lysozyme, 1/200 protease inhibitor cocktail (EMD set3, EDTA free) and 1/2000 endonuclease. Lysate was then centrifuged at 13,000 rpm for 30 min at 4° C. Supernatant was loaded onto 200 μL Ni-NTA columns pre-equilibrated with buffer A with 20 mM imidazole at 4° C. Each column was then washed with (1) 2×800 μL of buffer A with 10 mM imidazole, (2) 2×800 μL of buffer A with 20 mM imidazole and (3) 2×200 μL of buffer A with 50 mM imidazole. Protein was eluted with 200 μL of buffer A with 250 mM imidazole. The concentration was measured by Bradford assay. Purified protein was used in conjugation reaction assays as described in example 1.

Assay [3] is described as follows: LC-MS assay of GH3 conjugation of IAA with Asp or Glu. Conditions: LC-MS; for Detected auxin conjugates: IAA-Asp: IAA with Asp; for Detected auxin conjugates: IAA-Glu: IAA with Glu. In a few lines:
as §1

B1: GmGH3-6: GH3 protein, accession XP_003540891.1 (protein)
chain: MPQHQPTLMEPVLSYNNSTNNGNGNSDYDIISWFEDVSQNAGFVQTQLLFQILKQNYGVEYLKKWLGSYNILEMDACALESLFSSVVPLASHADFEPFIQRIADGDTAPLLTQQPITTLSLSSGTTEGRQKFVPFTRHSAQTTLQIFTLAAAYRSRIYPIRQGGRILEFIYSSNRFKTKGGLTVGTATTHYYASEEFNIKQHKTKSFTCSPQEVISGGDYKQSTYCHLLLGLFFSDQVEFITSAFIYSMVQAFTTFEELWREICNDIRDGTLSSRIKSPKMRKAVLDIISPNPNLAAKLEDACKGLEVVDWFGLIPKLWPNAKYVYSIMTGSMQPYLKKLRHYANGLPLVSADYGSTESWIGVNVDPSLPPEDVTFAVVPTFSYFEFIPLHRNEKNFSSGGDDFIEDKPIPLSQIKVGQEYEVVLTTFTGLYRCRLGDVVEVAGFHNGTPKLNFVCRRKLILTINIDKNTEKDLQLVVERGSHILNMTSRGELVDFTSYADVSKQPGHYVIYWEIKGEVEDKILGACCNEMDKSFADHGYVVSRKTNSIGPLELCVLESGTFKKILDSFIANGAALSQFKTPRCTNNHVLLKILNTCTTKKFRSTAYNSSMEQ
modifications: Glycine max
B1: in assay [1], the “Detected auxin conjugates: 2,4-D-Asp” value is listed as “No” and the “Detected auxin conjugates: 2,4-D-Glu” value was “No”. For the same molecule, in assay [2], the “Detected auxin conjugates: Dicamba-Asp” value is on record as “No” and the “Detected auxin conjugates: Dicamba-Glu” value is “No”. In assay [3], the “Detected auxin conjugates: IAA-Asp” value is reported as “Yes” and the “Detected auxin conjugates: IAA-Glu” value was “Yes”.

B2: GmGH3-10: GH3 protein, accession XP_003541929.1 (protein)
chain: MPEAPKHLCHDPKDNLDDDDDDGSSNNNKRALEYIEEVTTNADEIQEKVLAQILSRSANAEYLQRHGLEGRTDRNTFKNIMPVVTYEDLKPDIDRIANGDTSPILCSKPISEFLTSSGTSGGERKLMPTIEEELERRSMLYSLLMPVMDQFVPDLDKGKGMYFLFTKSEAKTPGGLLARPVLTSYYKSSHFKHRKHDPYTNYTSPNETILCHDSYQSMYSQLLCGLYQNEEVLRVGAVFASGFIRALKFLEKHFVCLCNDIRTGTLDAKITDPSVREAVMKVLKPNPTLADFVETECMKGSWKGIITRIWPNTKYVDVIVTGTMSQYIPILDYYSNGLPLVCTMYASSECYFGLNLNPSCDPSEVAYTLIPTMAYFEFLPLDEINGHTNSISQLEQEHLVDLADVKLGQEYELVVTTYAGLYRYRVGDILRVAGFKNKAPQFNFVCRKNVVLSIDSDKTDEVELHNAVKSGAEQLAEFNASLTEYTSCVDTSTIPGHYVLYWEISTNDHTPTIPSSVFGHCCLSIEESLNSVYRQGRVSESIGPLEIKVVENGTFDKLMDFALSQGASINQYKTPRCVTYAPILDLLNSKVLSSYISPKCPNWVPGHKDWCTLH
modifications: Glycine max
As to B2, in assay [1], the “Detected auxin conjugates: 2,4-D-Asp” value was “Yes” and the “Detected auxin conjugates: 2,4-D-Glu” value was “Yes”. Moreover, in assay [2], the “Detected auxin conjugates: Dicamba-Asp” value is “No” and the “Detected auxin conjugates: Dicamba-Glu” value is on record as “No”. Besides, in assay [3], the “Detected auxin conjugates: IAA-Asp” value is reported as “Yes” and the “Detected auxin conjugates: IAA-Glu” value is given as “Yes”.

B3: GmGH3-15: GH3 protein, accession XP_003540050.1 (protein)
chain: MPEAPRDYNLFEQNKKTLEFIEDVTANADQVQKRVLSEILSNNANVEYLKRHDLHGQTDRETFKKLLPVITYEDIQPDINRIANGDTSPILCSKPISEFLTSSGTSGGERKLMPTIEEELGRRSLLYSLLMPVMSQFVPGLEKGKGMYLMFIKSEAKTPGGIVARPVLTSYYKSSYFKDRPYDPYTNYTSPNETVLCPDSYQSMYSQLLCGLCQHKEVLRVGAVFASGFIRAIRFLEKHWPLLCHDIRTGTINNTITDLSVRDAVMKILKPDPRLGDLIQSECGKSSWQGIITRLWPNTKYVDVIVTGTMSQYIPTLDYYSNGLPLVCTMYASSECYFGVNLNPLCKPSEVSYTLIPTMCYYEFLPVNRSNGVSHDSLHTPRSLNEKEQQELVELVDVKLGQEYELVVTTYAGLYRYRVGDVLRVAGFKNKAPQFNFVCRKNVVLSIDSDKTDEVELQNAMKNAVTHLVPFDASVSEYTSYADTTTIPGHYVLYWELSLKGSTPIPPCVFEDCCLAIEESLNSVYRQGRVSDKSIGPLEIKIVEQGTFDKLMDYAISLGASINQYKTPRCVKFAPVVELLNSRVVEKYFSPKCPKWVPGHKQWINQN
modifications: Glycine max
As for B3, in assay [1], the “Detected auxin conjugates: 2,4-D-Asp” value is reported as “Yes” and the “Detected auxin conjugates: 2,4-D-Glu” value is on record as “Yes”. For the same molecule, in assay [2], the “Detected auxin conjugates: Dicamba-Asp” value was “No” and the “Detected auxin conjugates: Dicamba-Glu” value is “No”. For the same molecule, in assay [3], the “Detected auxin conjugates: IAA-Asp” value was “Yes” and the “Detected auxin conjugates: IAA-Glu” value was “Yes”.

B4: Gm03g30590.1: GH3 protein, Glyma03g30590.1 (protein)
chain: MMTDEELLQKLEDLTKNAQHHHLETLRSILLHNGIVHYLQSFKKGSLLHLDPSTFARVVPLSTYEDYVDYINQMAEGKDDPFLSVDPLRCFFYSSGTSSSTMKPKLIPYFDSSLSKAASFIGHRGSVAVRQRLFPPRPEVNKILWFLYADNITTTKCGLKVMAASTYPLQSGNATPQQLAAFSSPLEVILATNVENQMYCHLLCGLRNLDLIDGIATPYAIGLIKAFGFLESKWEQLCDDLDHGFPCNEISEGAMREAVTNTLGGPQPELANRIRLICEGNNWGGIVYRLWPNIRYIRCVTTGSMKQYYQKLKYYAGEVPILGGDYFASECCVGLNLDIMQPPETTRFVMLPTFAYFEFLPFNINEDNDASKEAVDYSSVEVGKMYEVVVTTYRGYYRYRLGDIVRVVGFYNSSPLVEYVMRAPKTPAEIVTEKDLISAVENFQLALRGAMRIEIVEFASFLDQESMPKQLKVFVEVQEESDFLEDKLEESVRVLRSCISSLESGLGAIYKVQKDKGQLRSLRIFIIRPGAFDQLSELAIKNGTSASQYKPPKIIRNHEVVKLLEKLAFVAVSFDG
modifications: Glycine max
As to B4, in assay [1], the “Detected auxin conjugates: 2,4-D-Asp” value is on record as “Yes” and the “Detected auxin conjugates: 2,4-D-Glu” value was “Yes”. Further, in assay [2], the “Detected auxin conjugates: Dicamba-Asp” value is given as “No” and the “Detected auxin conjugates: Dicamba-Glu” value is “No”. In assay [3], the “Detected auxin conjugates: IAA-Asp” value is “Yes” and the “Detected auxin conjugates: IAA-Glu” value is “No”.

B5: GmGH3-14: GH3 protein, accession XP_003516612.1 (protein)
chain: MRPYPYVFPGPHVLPAKSTTEVVLIFCPLRYPGPLPLSFPFILSILILPSLIMALQFIEQVTKNTDSVQERVLSEILTQNAETEYLKRFALNGATDRDTFKSKVPVVTYEDLQPDIERIANGDRSPILCAHPISEFLTSSGTSAGERKLMPTIHEEMDRRQLLYSLLMPVMNQYVSDLDKGKALHFLFIKAEAKTPGGLMARPVLTSYYKSEQFRKRPFDPYNVLTSPNEAILCPDSFQSMYTQMLCGLIMRHEVLRVGAVFASGLLRAIRFLQLNWEQLSHDILTGTLNPKITEPSIKERMSKILKPDPELAAFIKSECSGENWERIIVRIWPNTKYLDVIVTGAMAQYIPTLDYYSGGLPKPCTMYASSECFFGLNLKPMSEPSDVSYTILPNMGYFEFLPHDDSSPITLSKDSPPRLVELADVELGKYYELIITTYAGLCRYRVGDILQVTGFHNSDPQFRFVRRKNVLLSIDSDKTDESELQKAVENASELLKEFNTSVAEYTSFADTKSIPGHYVIYWELMMKDSSHPPTNQVLNQCCLVMEESLNSVYRQGRVADNSIGPLEIRVVKNGTFEELMDYAISRGASINQYKVPRCVSFTPIMELLDSRVLSFHFSPAAPHWTPERRR
modifications: Glycine max
On to B5, for which, in assay [1], the “Detected auxin conjugates: 2,4-D-Asp” value is given as “No” and the “Detected auxin conjugates: 2,4-D-Glu” value was “No”. In assay [2], the “Detected auxin conjugates: Dicamba-Asp” value is listed as “No” and the “Detected auxin conjugates: Dicamba-Glu” value is “No”. In addition, in assay [3], the “Detected auxin conjugates: IAA-Asp” value is reported as “No” and the “Detected auxin conjugates: IAA-Glu” value is reported as “No”.
